Test results published in the supplement of paper PMC10724198.
± gives the standard deviation of the averaged measurements.
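Note: PSI is a weighted mean of sequencing reads over stability bins, variants kept only with over 10 reads, mCherry proximal and sfGFP distal, peptide attached via GGGS linker.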

These sequences were tested on Saccharomyces cerevisiae (assay: protein stability index of tFT-peptide fusion (C-terminal peptide) (PSI (0-1 scale)); higher = more stable (slower turnover)). Settings: genetic background: cdc34-1; temperature: 37 C.
Protocol: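 MPS profiling in S. cerevisiae of the tFT-X12 degron library: putative degron peptides plus stable controls, 12 aa, fused to the C-terminus of a sfGFP-mCherry timer. Cells are FACS-sorted into 8 mCherry/sfGFP bins and deep-sequenced. PSI runs from 0 (unstable) to 1 (stable). Backgrounds are wild type, das1Δ and doa10Δ at 30 °C, and wild type, das1Δ, cdc34-1 and cdc53-1 at 37 °C; 2-3 technical replicates each.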
HLYITGIIRKIT showed a protein stability index of 0.519 ± 0.027. HMVSWTVVRSLM was tested, and the protein stability index was 0.652 ± 0.065. HYTSFAVPPLVY gave a protein stability index of 0.524 ± 0.037. For IFFFQFLWFCLS, the protein stability index was 0.296 ± 0.0037. IFRLVRVVRSSS was tested, and the protein stability index was 0.669 ± 0.015. IIAVFRCCLRVY showed a protein stability index of 0.052 ± 0.0087. Work on IIFWMWVIIRVY yielded a protein stability index of 0.121 ± 0.11. IIPAFPFAFLAF showed a protein stability index of 0.527 ± 0.0088. IISPLRLLPLFF was tested, and the protein stability index was 0.634 ± 0.018. Sequence IKERRKVSMKVY has a protein stability index of 0.639 ± 0.023. ILFCVRIGLFWT was tested, and the protein stability index was 0.0461 ± 0.0067. In the case of INGINHKIIKIV, the protein stability index is reported as 0.44 ± 0.025. INILVIWRKNHV gave a protein stability index of 0.463 ± 0.00091. IPLGLTLVQCLY gave a protein stability index of 0.614 ± 0.03. IREYSIRIKRLQ gave a protein stability index of 0.623 ± 0.062. Work on IRFFLIVFCFLR yielded a protein stability index of 0.157 ± 0.015. With ISATYSYIPVVG the protein stability index was 0.502 ± 0.0071. For ISVRKTFLIVLC, the protein stability index was 0.331 ± 0.031. IVFLPVLLWFSV gave a protein stability index of 0.389 ± 0.0069. In the case of IVTSFVSPVYIC, the protein stability index is reported as 0.396 ± 0.035. In the case of IWVFSVTGWCGC, the protein stability index is reported as 0.501 ± 0.0055. IYITFQIYVSDM gave a protein stability index of 0.104 ± 0.018. In the case of IYLLLFFFSFSA, the protein stability index is reported as 0.365 ± 0.032. For KKKQAILRTLKI, the protein stability index was 0.681 ± 0.079. KKKTKYSKDKLC showed a protein stability index of 0.607 ± 0.03. In the case of KKTKKTMIIKTT, the protein stability index is reported as 0.693 ± 0.066. Sequence KLKLWSIIKNNA has a protein stability index of 0.686 ± 0.06. With KLMGWFVGVVAR the protein stability index was 0.494 ± 0.0073. For KLVFLLCLNKVF, the protein stability index was 0.51474 ± 0.00047. In the case of KRKKHKRKLVIC, the protein stability index is reported as 0.611 ± 0.03. KRSPPPATPSSG was tested, and the protein stability index was 0.6827 ± 0.0047. KSARLYVTSFLC showed a protein stability index of 0.571 ± 0.0067. KTRQLINKITQM showed a protein stability index of 0.6601 ± 0.00086.

Same assay, conditions: genetic background: cdc53-1; temperature: 37 C
HLYITGIIRKIT showed a protein stability index of 0.619 ± 0.11. HMVSWTVVRSLM showed a protein stability index of 0.7014 ± 0.004. In the case of HYTSFAVPPLVY, the protein stability index is reported as 0.476 ± 0.025. IFFFQFLWFCLS was tested, and the protein stability index was 0.295 ± 0.0059. IFRLVRVVRSSS showed a protein stability index of 0.688 ± 0.037. For IIAVFRCCLRVY, the protein stability index was 0.12 ± 0.022. With IIFWMWVIIRVY the protein stability index was 0.0686 ± 0.034. For IIPAFPFAFLAF, the protein stability index was 0.526 ± 0.018. Sequence IISPLRLLPLFF has a protein stability index of 0.73 ± 0.013. Sequence IKERRKVSMKVY has a protein stability index of 0.688 ± 0.02. ILFCVRIGLFWT gave a protein stability index of 0.135 ± 0.0014. Sequence INGINHKIIKIV has a protein stability index of 0.721 ± 0.042. Sequence INILVIWRKNHV has a protein stability index of 0.671 ± 0.041. IPLGLTLVQCLY showed a protein stability index of 0.61 ± 0.029. Work on IREYSIRIKRLQ yielded a protein stability index of 0.722 ± 0.052. IRFFLIVFCFLR showed a protein stability index of 0.131 ± 0.017. Sequence ISATYSYIPVVG has a protein stability index of 0.496 ± 0.011. For ISVRKTFLIVLC, the protein stability index was 0.351 ± 0.018. In the case of IVFLPVLLWFSV, the protein stability index is reported as 0.411 ± 0.0085. With IVTSFVSPVYIC the protein stability index was 0.5353 ± 0.003. In the case of IWVFSVTGWCGC, the protein stability index is reported as 0.589 ± 0.018. Work on IYITFQIYVSDM yielded a protein stability index of 0.172 ± 0.0076. For IYLLLFFFSFSA, the protein stability index was 0.449 ± 0.053. KKKQAILRTLKI gave a protein stability index of 0.74 ± 0.026. KKKTKYSKDKLC gave a protein stability index of 0.696 ± 0.025. Sequence KKTKKTMIIKTT has a protein stability index of 0.706 ± 0.027. For KLKLWSIIKNNA, the protein stability index was 0.749 ± 0.021. Work on KLMGWFVGVVAR yielded a protein stability index of 0.49 ± 0.019. Sequence KLVFLLCLNKVF has a protein stability index of 0.5887 ± 0.0014. KRKKHKRKLVIC showed a protein stability index of 0.674 ± 0.025. KRSPPPATPSSG gave a protein stability index of 0.73 ± 0.013. With KSARLYVTSFLC the protein stability index was 0.682 ± 0.035. KTRQLINKITQM was tested, and the protein stability index was 0.693 ± 0.019.

Same assay, conditions: genetic background: das1 deletion; temperature: 30 C
For HLYITGIIRKIT, the protein stability index was 0.668 ± 0.054. With HMVSWTVVRSLM the protein stability index was 0.603 ± 0.019. Sequence HYTSFAVPPLVY has a protein stability index of 0.366 ± 0.018. For IFFFQFLWFCLS, the protein stability index was 0.305 ± 0.036. For IFRLVRVVRSSS, the protein stability index was 0.6 ± 0.025. IIAVFRCCLRVY gave a protein stability index of 0.131 ± 0.034. With IIFWMWVIIRVY the protein stability index was 0.142 ± 0.04. IIPAFPFAFLAF gave a protein stability index of 0.415 ± 0.026. In the case of IISPLRLLPLFF, the protein stability index is reported as 0.61 ± 0.039. IKERRKVSMKVY gave a protein stability index of 0.519 ± 0.035. With ILFCVRIGLFWT the protein stability index was 0.137 ± 0.03. Sequence INGINHKIIKIV has a protein stability index of 0.65 ± 0.036. In the case of INILVIWRKNHV, the protein stability index is reported as 0.5213 ± 0.0049. In the case of IPLGLTLVQCLY, the protein stability index is reported as 0.491 ± 0.042. Sequence IREYSIRIKRLQ has a protein stability index of 0.64 ± 0.041. IRFFLIVFCFLR showed a protein stability index of 0.251 ± 0.019. ISATYSYIPVVG showed a protein stability index of 0.346 ± 0.024. Sequence ISVRKTFLIVLC has a protein stability index of 0.266 ± 0.047. For IVFLPVLLWFSV, the protein stability index was 0.333 ± 0.032. With IVTSFVSPVYIC the protein stability index was 0.456 ± 0.017. Work on IWVFSVTGWCGC yielded a protein stability index of 0.401 ± 0.022. IYITFQIYVSDM showed a protein stability index of 0.161 ± 0.019. Sequence IYLLLFFFSFSA has a protein stability index of 0.376 ± 0.017. Sequence KKKQAILRTLKI has a protein stability index of 0.663 ± 0.049. For KKKTKYSKDKLC, the protein stability index was 0.662 ± 0.036. For KKTKKTMIIKTT, the protein stability index was 0.6314 ± 0.005. Work on KLKLWSIIKNNA yielded a protein stability index of 0.658 ± 0.022. With KLMGWFVGVVAR the protein stability index was 0.355 ± 0.025. In the case of KLVFLLCLNKVF, the protein stability index is reported as 0.439 ± 0.017. With KRKKHKRKLVIC the protein stability index was 0.612 ± 0.012. In the case of KRSPPPATPSSG, the protein stability index is reported as 0.631 ± 0.025. KSARLYVTSFLC gave a protein stability index of 0.623 ± 0.012. With KTRQLINKITQM the protein stability index was 0.62 ± 0.018.

Same assay, conditions: genetic background: das1 deletion; temperature: 37 C
HLYITGIIRKIT showed a protein stability index of 0.695 ± 0.016. Sequence HMVSWTVVRSLM has a protein stability index of 0.76 ± 0.026. HYTSFAVPPLVY showed a protein stability index of 0.5275 ± 0.0048. For IFFFQFLWFCLS, the protein stability index was 0.4186 ± 0.0012. In the case of IFRLVRVVRSSS, the protein stability index is reported as 0.714 ± 0.05. In the case of IIAVFRCCLRVY, the protein stability index is reported as 0.216 ± 0.003. IIFWMWVIIRVY gave a protein stability index of 0.205 ± 0.0091. With IIPAFPFAFLAF the protein stability index was 0.565 ± 0.0086. For IISPLRLLPLFF, the protein stability index was 0.724 ± 0.0088. Work on IKERRKVSMKVY yielded a protein stability index of 0.677 ± 0.018. For ILFCVRIGLFWT, the protein stability index was 0.24 ± 0.0035. In the case of INGINHKIIKIV, the protein stability index is reported as 0.72 ± 0.013. For INILVIWRKNHV, the protein stability index was 0.662 ± 0.014. For IPLGLTLVQCLY, the protein stability index was 0.60744 ± 0.00017. IREYSIRIKRLQ gave a protein stability index of 0.719 ± 0.022. Sequence IRFFLIVFCFLR has a protein stability index of 0.286 ± 0.041. Sequence ISATYSYIPVVG has a protein stability index of 0.541 ± 0.012. ISVRKTFLIVLC was tested, and the protein stability index was 0.486 ± 0.01. Sequence IVFLPVLLWFSV has a protein stability index of 0.474 ± 0.0013. For IVTSFVSPVYIC, the protein stability index was 0.634 ± 0.055. IWVFSVTGWCGC showed a protein stability index of 0.55 ± 0.008. IYITFQIYVSDM showed a protein stability index of 0.267 ± 0.0076. For IYLLLFFFSFSA, the protein stability index was 0.5104 ± 0.0037. With KKKQAILRTLKI the protein stability index was 0.697 ± 0.037. With KKKTKYSKDKLC the protein stability index was 0.723 ± 0.021. In the case of KKTKKTMIIKTT, the protein stability index is reported as 0.745 ± 0.0037. KLKLWSIIKNNA showed a protein stability index of 0.745 ± 0.015. KLMGWFVGVVAR gave a protein stability index of 0.535 ± 0.011. KLVFLLCLNKVF gave a protein stability index of 0.63 ± 0.0047. Sequence KRKKHKRKLVIC has a protein stability index of 0.732 ± 0.012. With KRSPPPATPSSG the protein stability index was 0.76 ± 0.043. Work on KSARLYVTSFLC yielded a protein stability index of 0.739 ± 0.023. KTRQLINKITQM was tested, and the protein stability index was 0.7358 ± 0.0036.
